The target of assay [1] is T1, Recombinant human Syntaxin6 (human, UniProt O43752 1-255).
T1 sequence: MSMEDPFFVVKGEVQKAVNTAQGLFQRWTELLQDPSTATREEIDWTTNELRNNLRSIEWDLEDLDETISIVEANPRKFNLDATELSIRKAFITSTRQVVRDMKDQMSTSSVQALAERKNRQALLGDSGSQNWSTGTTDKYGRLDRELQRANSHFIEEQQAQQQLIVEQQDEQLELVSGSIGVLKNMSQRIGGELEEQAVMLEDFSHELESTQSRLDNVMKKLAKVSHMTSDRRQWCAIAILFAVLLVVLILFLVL
The assay is described as follows: pull-down.

The target in another assay is T2, Recombinant human Vti1a (human, UniProt Q96AJ9 1-217).
T2 sequence (looked up): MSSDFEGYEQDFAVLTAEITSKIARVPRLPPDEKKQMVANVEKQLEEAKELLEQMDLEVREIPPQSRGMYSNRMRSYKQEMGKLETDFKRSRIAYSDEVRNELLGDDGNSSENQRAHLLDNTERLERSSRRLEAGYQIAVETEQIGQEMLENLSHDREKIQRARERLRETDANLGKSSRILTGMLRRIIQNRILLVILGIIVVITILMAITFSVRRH
Nature of the assay: pull-down.

This note sets out measurements from doi:10.1101/2021.02.09.430442 (bioRxiv, 2021).

B1: GST-VAMP4 (natural protein, human, UniProt O75379 1-141, looked up)
chain: MPPKFKRHLNDDDVTGSVKSERRNLLEDDSDEEEDFFLRGPSGPRFGPRNDKIKHVQNQVDEVIDVMQENITKVIERGERLDELQDKSESLSDNATAFSNRSKQLRRQMWWRGCKIKAIMALVAAILLLVIIILIVMKYRT
Consider B1, for which the binding result (in assay [1]; with Recombinant human Vti1a) was “binds” in each case.
